Results taken from the Immune Epitope Database (IEDB).
Values belong to the sequence of their own block, whether it stands above or below them.

How the values were obtained:
HLA-B*15:03 = assay: IEDB peptide-MHC binding, purified MHC/competitive/radioactivity; filed as Kd, often an IC50 or EC50 that approximates it; ≥ and ≤ were set here for values at or beyond the usual limits of such assays
HLA-B*18:01 = assay: as above
HLA-B*40:01 [1] = assay: as above
HLA-B*45:01 = assay: as above
HLA-B*44:03 = assay: as above
HLA-B*44:02 [2] = assay: as above
HLA-B*40:02 = assay: as above
HLA-A*02:01 [3] = assay: as above
HLA-A*02:03 = assay: as above
HLA-B*15:01 [4] = assay: as above
HLA-A*26:01 = assay: IEDB peptide-MHC binding, purified MHC/competitive/fluorescence; filed as Kd, often an IC50 or EC50 that approximates it; ≥ and ≤ were set here for values at or beyond the usual limits of such assays; conditions: source organism: Escherichia coli str. K-12 substr. MG1655
HLA-B*15:01 [5] = assay: IEDB peptide-MHC binding, purified MHC/direct/fluorescence; filed as Kd, often an IC50 or EC50 that approximates it; ≥ and ≤ were set here for values at or beyond the usual limits of such assays; conditions: source organism: Yellow fever virus
HLA-A*01:01 = assay: as above; conditions: source organism: Yellow fever virus
HLA-A*03:01 = assay: as above; conditions: source organism: Yellow fever virus
HLA-B*46:01 = assay: as above; conditions: source organism: Yellow fever virus
HLA-B*07:02 [6] = assay: as above; conditions: source organism: Yellow fever virus
HLA-B*40:01 [7] = assay: as above; conditions: source organism: Yellow fever virus
HLA-B*48:01 = assay: as above; conditions: source organism: Yellow fever virus
HLA-A*02:01 [8] = assay: as above; conditions: source organism: Yellow fever virus
HLA-B*57:01 = assay: as above; conditions: source organism: Yellow fever virus
HLA-B*44:02 [9] = assay: as above; conditions: source organism: Yellow fever virus
HLA-B*58:01 = assay: as above; conditions: source organism: Yellow fever virus
HLA-A*69:01 = assay: as above; conditions: source organism: Yellow fever virus
HLA-B*51:01 = assay: IEDB peptide-MHC binding, purified MHC/competitive/radioactivity; filed as Kd, often an IC50 or EC50 that approximates it; ≥ and ≤ were set here for values at or beyond the usual limits of such assays; conditions: source organism: Dengue virus 2 Jamaica/1409/1983
HLA-B*08:01 = assay: as above; conditions: source organism: Vaccinia virus Copenhagen
HLA-A*32:01 = assay: as above; conditions: source organism: Vaccinia virus Copenhagen
HLA-B*07:02 [10] = assay: as above; conditions: source organism: Dengue virus 2 Jamaica/1409/1983
HLA-B*53:01 = assay: as above; conditions: source organism: Dengue virus 2 Jamaica/1409/1983
[11] = source organism: Vaccinia virus WR
[12] = source organism: Mammarenavirus lassaense
[13] = source organism: SARS coronavirus Tor2
[14] = source organism: Mammarenavirus machupoense
[15] = source organism: Mammarenavirus brazilense
[16] = source organism: Vaccinia virus Copenhagen
[17] = source organism: Mammarenavirus choriomeningitidis

Sequence: AAFEFINSL
- Kd (HLA-B*15:03; [11]): 4.55 nM

Sequence: AEFKSRFFVW
- Kd (HLA-B*18:01; [12]): 271 nM
- Kd (HLA-B*40:01 [1]; [12]): 2330 nM
- Kd (HLA-B*45:01; [12]): 51.4 nM
- Kd (HLA-B*44:03; [12]): 15.6 nM
- Kd (HLA-B*44:02 [2]; [12]): 13.6 nM
- Kd (HLA-B*40:02; [12]): 29.4 nM

Sequence: AEMDGIQYG
- Kd (HLA-B*18:01; [13]): ≥ 77500 nM
- Kd (HLA-B*40:01 [1]; [13]): 2020 nM
- Kd (HLA-B*45:01; [13]): 47.6 nM
- Kd (HLA-B*44:03; [13]): 13.8 nM
- Kd (HLA-B*44:02 [2]; [13]): 11.4 nM
- Kd (HLA-B*40:02; [13]): 1310 nM

- Kd (HLA-A*02:01 [3]; source organism: Homo sapiens): ≥ 41800 nM
- Kd (HLA-A*02:03; source organism: Homo sapiens): 23.3 nM
Sequence: ALKRAQSEL

Sequence: CSAPPGQHM
- Kd (HLA-B*15:01 [4]; [11]): 52.7 nM
- Kd (HLA-B*15:03; [11]): 24 nM

- Kd (HLA-A*26:01): 324 nM
Sequence: DVAKIEAPL

Sequence: EELITDTEFL
- Kd (HLA-B*18:01; [12]): 10900 nM
- Kd (HLA-B*40:01 [1]; [12]): 12700 nM
- Kd (HLA-B*45:01; [12]): 12400 nM
- Kd (HLA-B*44:03; [12]): 9100 nM
- Kd (HLA-B*44:02 [2]; [12]): 4740 nM
- Kd (HLA-B*40:02; [12]): ≥ 24100 nM

Sequence: EEPVPLLPLS
- Kd (HLA-B*18:01; [14]): ≥ 52400 nM
- Kd (HLA-B*40:01 [1]; [14]): ≥ 32000 nM
- Kd (HLA-B*45:01; [14]): 1950 nM
- Kd (HLA-B*44:03; [14]): 6260 nM
- Kd (HLA-B*44:02 [2]; [14]): 15700 nM
- Kd (HLA-B*40:02; [14]): 7130 nM

Sequence: ERWFVRNPF
- Kd (HLA-B*15:01 [5]): ≥ 20000 nM
- Kd (HLA-A*01:01): ≥ 20000 nM
- Kd (HLA-A*03:01): ≥ 20000 nM
- Kd (HLA-B*46:01): ≥ 20000 nM
- Kd (HLA-B*07:02 [6]): ≥ 20000 nM
- Kd (HLA-B*40:01 [7]): ≥ 20000 nM
- Kd (HLA-B*48:01): ≥ 20000 nM
- Kd (HLA-A*02:01 [8]): ≥ 20000 nM
- Kd (HLA-B*57:01): ≥ 20000 nM
- Kd (HLA-B*44:02 [9]): ≥ 20000 nM
- Kd (HLA-B*58:01): ≥ 20000 nM
- Kd (HLA-A*69:01): ≥ 20000 nM

Sequence: FLTIPPTAGI
- Kd (HLA-A*02:03; source organism: Dengue virus 2 Jamaica/1409/1983): 9.79 nM
- Kd (HLA-B*51:01): 343 nM

Sequence: FQVVNPHLL
- Kd (HLA-B*15:03; [11]): 40.3 nM

Sequence: FSGSFASIF
- Kd (HLA-B*15:03; [11]): 0.318 nM

Sequence: GEDIQLLKA
- Kd (HLA-B*18:01; [13]): 1080 nM
- Kd (HLA-B*40:01 [1]; [13]): 7550 nM
- Kd (HLA-B*45:01; [13]): 2880 nM
- Kd (HLA-B*44:03; [13]): 2660 nM
- Kd (HLA-B*44:02 [2]; [13]): 13600 nM
- Kd (HLA-B*40:02; [13]): 2730 nM

Sequence: GEHSLPRCW
- Kd (HLA-B*18:01; [15]): ≥ 77500 nM
- Kd (HLA-B*40:01 [1]; [15]): ≥ 42800 nM
- Kd (HLA-B*45:01; [15]): 8740 nM
- Kd (HLA-B*44:03; [15]): 80.2 nM
- Kd (HLA-B*44:02 [2]; [15]): 24.2 nM
- Kd (HLA-B*40:02; [15]): 2140 nM

Sequence: GLQSQQGHL
- Kd (HLA-A*02:01 [3]; source organism: Hepatitis B virus subtype ayw): ≥ 5000 nM

Sequence: GLTYSQLMT
- Kd (HLA-A*02:01 [3]; source organism: Lassa virus Josiah): 12500 nM

Sequence: HMAYSFQTF
- Kd (HLA-B*15:01 [4]; [16]): 0.246 nM
- Kd (HLA-B*15:03; [16]): 0.279 nM
- Kd (HLA-B*08:01): 733 nM
- Kd (HLA-A*32:01): 16.3 nM

Sequence: IDPTLTTWI
- Kd (HLA-B*18:01; [15]): ≥ 42000 nM
- Kd (HLA-B*40:01 [1]; [15]): ≥ 53300 nM
- Kd (HLA-B*45:01; [15]): 7230 nM
- Kd (HLA-B*44:03; [15]): 1370 nM
- Kd (HLA-B*44:02 [2]; [15]): 3580 nM
- Kd (HLA-B*40:02; [15]): ≥ 10000 nM

Sequence: IETALRTLI
- Kd (HLA-B*18:01; [17]): 3450 nM
- Kd (HLA-B*40:01 [1]; [17]): 1860 nM
- Kd (HLA-B*45:01; [17]): ≥ 54000 nM
- Kd (HLA-B*44:03; [17]): 2200 nM
- Kd (HLA-B*44:02 [2]; [17]): 2780 nM
- Kd (HLA-B*40:02; [17]): 154 nM

Sequence: IPTAMAFHL
- Kd (HLA-B*07:02 [10]): 83.1 nM
- Kd (HLA-B*53:01): 49.4 nM

Sequence: KEGFFTYLCG
- Kd (HLA-B*18:01; [13]): ≥ 70500 nM
- Kd (HLA-B*40:01 [1]; [13]): 1640 nM
- Kd (HLA-B*45:01; [13]): 2890 nM
- Kd (HLA-B*44:03; [13]): 369 nM
- Kd (HLA-B*44:02 [2]; [13]): 2620 nM
- Kd (HLA-B*40:02; [13]): 3750 nM
